From the supplement of paper PMC9170038
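Also: bound reporter read as fluorescence of individual clusters on recovered sequencing chips by microscopy, with normalized cluster intensities fitted with a binding model.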

What follows are sequences tested on K4 kissing-loop RNA reporter (assay: apparent KD of K4 kissing-loop reporter; higher = weaker reporter binding). Conditions: Eterna round: R107; input ligand: arginine 13.2 mM.
Description: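 RNA-MaP round R107: designed RNA switches with theophylline, tryptophan, arginine or FMN aptamers are transcribed on-chip within common flanks. They are titrated with a labelled K4 kissing-loop RNA reporter in RNA-MaP buffer (100 mM Tris pH 7.5, 80 mM KCl, 4 mM MgCl2), without ligand or with the indicated ligand. Median apparent KD per design.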
With “UCCUGCUGUCUGCCACGAAAGUGGAUUGAUACCAGAGUCGAAAGACUCCCUUGGCAGCGAGUGAUGUUCGAAGCAGGUAAAUAAA [MatMod 2 - Jieux - Exclusion - Theophylline A]” the “apparent KD of K4 kissing-loop reporter” value was 215 nM.
In the case of “AGUGCUAUGACGGCCGCCACUGAUUACCAGUGAUGUUGGUAGUCCAUUUACGACUUCCUGAUAACCAGGACCGGGUCAUAGGUCG [Tryp B Ex t2]”, the “apparent KD of K4 kissing-loop reporter” value is reported as 613 nM.
With “UCCUGCAAUCGUCCACGAAAGUGGAUCGAUACCAGAGUCGAAAGACUCCCUUGGCAGCGAGUGAUGUUCGAAGCAGGUAAAUAAA” the “apparent KD of K4 kissing-loop reporter” value was 387 nM.
In the case of “GCUAAGGAGUGAUGUUCCAAGUGAUGUUAACGAGGACCGGUACGGCCGCCACUCGAUACGGCCGGAAAGUAAGAUAAACUACAGU [Same State - Tryptophan A (Freestyle 4)]”, the “apparent KD of K4 kissing-loop reporter” value is reported as 59.8 nM.
“ACCGCAUUGGGCUGAUCCCAAUGCGCUGGUCGAGGACCGGUACGGCCGCCACUCGUCCAGUGAUGUUGGACUAGGGCAACUGAAG [Veraceer]” was tested, and the “apparent KD of K4 kissing-loop reporter” value was 244 nM.
“UGACUGGACUGAAGGAGCGGGCGAGACAAAGUCUCGAACUCUUAGUGAUGUUAGGAAAUAACCCAGGUAGGUCGCAGUCUAGUCU” was tested, and the “apparent KD of K4 kissing-loop reporter” value was 132 nM.
In the case of “AAAAUAAUCCAGUGAUGUUGGUAACCAGAUACCAGCGACGAAAGUCGCCCUUGGCAGCUGUGGACGUACAAAAUAAGUACGUCCU”, the “apparent KD of K4 kissing-loop reporter” value is reported as 415 nM.
With “AGACUACCACACUGUCAAUAGACAGUGAGCUAGGAUAUGCUGAUAAGCAGAAGGAGUGAUGUUCCUGGGUAGUCAAUAAAAUAAU [FmnAX 13 G29+G67]” the “apparent KD of K4 kissing-loop reporter” value was 349 nM.
“AAUUCAAACUGAAGGAGCGAGCAUUUUGGAGUGAUGUUCCAAGCGAGUGAUGUUCGCAUAGCUCAGGUAGGUCGCAGUUUGGAUA [Same State Arginie B GF 14]” was tested, and the “apparent KD of K4 kissing-loop reporter” value was 136 nM.
For “GAUUAAUAAGAGGAUACCAGUACAAAUAAAGUACAUUAAUAGUAGAGUGAUGUUCUAAAGUACCCUUGGCAGCUUAGAGUAAGUU [ExTheophylB.A]”, the “apparent KD of K4 kissing-loop reporter” value was 207 nM.
“GGGAGGAGUGGUGUUGAUUAAGAAGCGGAAGGAGCGCCGAAGAAGGCAGGUAGGUCGCCGGAAUAUAGUGAUGUUAUAUAGAGGG [ExArg.E]” was tested, and the “apparent KD of K4 kissing-loop reporter” value was 323 nM.
With “AAAGUAUACUGAAGGAGCGAGUAGUGGAAACAUAAACUCAUUGCGAGUGAUGUUCGCAGUACUCAGGUAGGUCGCGGUAAUCGUA [Exclusion Arginine B Gf 12]” the “apparent KD of K4 kissing-loop reporter” value was 498 nM.
In the case of “AGACUACCACACUGUCAAUAGACAGUGAACUAGGAUAUGCUGAUAAGCAGAAGGAGUGAUGUUCCUAAAGGUAGUCAAAUAUAAU [FmnAX 14 #SwitchBubble #StaticStem #K4Early]”, the “apparent KD of K4 kissing-loop reporter” value is reported as 380 nM.
“GGCGGCCGCGCGAAAGCGCGGCCGGCCGAUACCAGCGCGCCGGCGCGCCCUUGGCAGCGGCGCCGAGUGAUGUUCGGCCUGCCGU [#2 Same State - Theophylline A Attempt #12 (HarryS)]” was tested, and the “apparent KD of K4 kissing-loop reporter” value was 101 nM.
With “GCAUGGGUGCUUGCACAAGUGAUGUUUGGGCGAGGACCGGUACGGCCGCCACUCGUACGUUUAGUUAAAAGACAUCAUGCGAGUC [theeternabot_exclusion_KL_Trp_A_11]” the “apparent KD of K4 kissing-loop reporter” value was 246 nM.
In the case of “UUAGAGAUCUCAGGAUAUCAGUGAUGUUGAGAUUCAGAUCUGAGAUAGAAUUCUAUCUCAGAUCAAUGAGAAGGGAGAUCUCAUU [AK4.4 Exc FMN B]”, the “apparent KD of K4 kissing-loop reporter” value is reported as 540 nM.
With “AACAUUUUCAGAAGGAGCGUGAAUUAUUCAUAAUUAUAUUAUACGAGUGAUGUUCGUAUUUCACAGGUAGGUCGCUGAUAUAGUA [#02 K4 Arginine B Same State]” the “apparent KD of K4 kissing-loop reporter” value was 127 nM.
“CGCCACAACUGAAGGAGCGCGCCAGUGAUGUUGGACGGCUUCGUCAAGGAAACUGCACCGGUGCAGGUAGGUCGCAGUGCGUGGU [Eranarve]” was tested, and the “apparent KD of K4 kissing-loop reporter” value was 164 nM.
In the case of “GUCUCGAGUGAUGUUCGGGUCGAUUGGGAAGGAGCGCCCGGAAGGGCAGGUAGGUCGCCCGGGCCGCGCGGGAAACCGCGCGUCC [#2 Same State - Arginine A Attempt #8 (HarryS)]”, the “apparent KD of K4 kissing-loop reporter” value is reported as 110 nM.
“UGAUAGGACAGAAGGAGCGGGAGUGAUGUUCCCAAAAGGAUAAGGUGUCAAAAGACACCCUCCCAGGUAGGUCGCUGUCCUAUCU” was tested, and the “apparent KD of K4 kissing-loop reporter” value was 311 nM.
In the case of “UCGAAGGAUGGAAGGAGCGCUCGUCAGUCCUGCGAGUGAUGUUCGUGGGUAAAUAUUCGCGAGCAGGUAGGUCGCCAUCUCGAAC [Erbemaa]”, the “apparent KD of K4 kissing-loop reporter” value is reported as 103 nM.
“AAGGACUGCCAGGGAACACACUCAUUAUGGGAGGAUAUGUUAGCUGACAGAAGGCCCAGUGAUGUUGGGCCGGCGGGCUGUCAGG [Diargean]” was tested, and the “apparent KD of K4 kissing-loop reporter” value was 202 nM.
In the case of “CUGGGUUGACGAAAAGUCAACAAAAGAGAAGGAGCGCACGAAAGUGCAGGUAGGUCGCUCAGUCCAGUGAUGUUGGAUCAUCCAG [#SwitchBubble 11 #K4Late]”, the “apparent KD of K4 kissing-loop reporter” value is reported as 502 nM.
For “GAGGUGCUGAUGCGGUGGCCGGUGGUCGUGCGAGGACCGGUACGGCCGCCACUCGCAUGAGUGAUGUUCAUGUGUCGUCGUCGUC [whbob_EX_Tryp_A_t3]”, the “apparent KD of K4 kissing-loop reporter” value was 104 nM.

Same assay, conditions: Eterna round: R107; input ligand: none
With “UGGCGACUGCCAGUGAUGUUGGCCGUCGUACGAGGACCGGUACGGCCGCCACUCGUCCUGGUUUAGGCUCCGCCUUCACAUCAGG [Beterire]” the “apparent KD of K4 kissing-loop reporter” value was 393 nM.
For “GAGGAUAGCGGAAGGAGCGAGUAAUGGAGUGAUGUUCCAAUCAAUAAAACACGAUAGAGUGCUCAGGUAGGUCGCCGUGGUGGUU [Exclusion Argiie B GF 13]”, the “apparent KD of K4 kissing-loop reporter” value was 165 nM.
With “GGAGUAACCUGGGAUACCAGUCGGAGGCCUAGGGAUCGGAGUGAUGUUCUGGGAUGUUUCGGCCCUUGGCAGCUCUGGGUCUCCG [#2 Exclusion - Theophylline B Attempt #2 (HarryS)]” the “apparent KD of K4 kissing-loop reporter” value was 151 nM.
“ACAUAGGAUGGAAGGAGCGCUCGUCAGUCCUGCGAGUGAUGUUCGUGGGUAAAUAUUCGCGAGCAGGUAGGUCGCCAUCUUGAAA [Vedi]” was tested, and the “apparent KD of K4 kissing-loop reporter” value was 158 nM.
For “UGAUACCAGACUGAUACCAGCCAGUGAUGUUGGCAAUAACCAAGGCGAGUCAAAGACUCGGGCCCUUGGCAGCAGUCUGGUAUCU [TheoBX 6 #SwitchBubble #StaticStem]”, the “apparent KD of K4 kissing-loop reporter” value was 133 nM.
For “AGGAUGUAGUGAUGUUAUAUAAGAAGUAAACGAGGACCGGUACGGCCGCCACUCGAAGCGGCUACUAGCGUGUUGCGAGGUGCGC [ExTryptoA.Cd]”, the “apparent KD of K4 kissing-loop reporter” value was 229 nM.
With “AAGUGAUGUUGUAGUGAUGUUGUGAUGUUGCAGGAUAUAUAGUGAUGUAGAAGGGUAUGUACAGUUUUUUUUUUUGAGUGAUGAU [vvcvmullin]” the “apparent KD of K4 kissing-loop reporter” value was 74.2 nM.
For “AGUGUUAGGUUAGAUACCAGCCGUCUGUAGAUAAUCCUCAGACCGCCAGUGAUGUUGGCAGGCCCUUGGCAGCUAACAGAACAGA [Orbediqu]”, the “apparent KD of K4 kissing-loop reporter” value was 210 nM.
“UCCUGCUGUCUGCCACGAAAGUGGAUUGAUACCAGAGUCGAAAGACUCCCUUGGCAGCGAGUGAUGUUCGAAGCAGGUAAAUAAA [MatMod 2 - Jieux - Exclusion - Theophylline A]” was tested, and the “apparent KD of K4 kissing-loop reporter” value was 234 nM.
“AGUGCUAUGACGGCCGCCACUGAUUACCAGUGAUGUUGGUAGUCCAUUUACGACUUCCUGAUAACCAGGACCGGGUCAUAGGUCG [Tryp B Ex t2]” was tested, and the “apparent KD of K4 kissing-loop reporter” value was 807 nM.
“UCCUGCAAUCGUCCACGAAAGUGGAUCGAUACCAGAGUCGAAAGACUCCCUUGGCAGCGAGUGAUGUUCGAAGCAGGUAAAUAAA” was tested, and the “apparent KD of K4 kissing-loop reporter” value was 466 nM.
“GCUAAGGAGUGAUGUUCCAAGUGAUGUUAACGAGGACCGGUACGGCCGCCACUCGAUACGGCCGGAAAGUAAGAUAAACUACAGU [Same State - Tryptophan A (Freestyle 4)]” was tested, and the “apparent KD of K4 kissing-loop reporter” value was 77.1 nM.
For “ACCGCAUUGGGCUGAUCCCAAUGCGCUGGUCGAGGACCGGUACGGCCGCCACUCGUCCAGUGAUGUUGGACUAGGGCAACUGAAG [Veraceer]”, the “apparent KD of K4 kissing-loop reporter” value was 249 nM.
In the case of “UGACUGGACUGAAGGAGCGGGCGAGACAAAGUCUCGAACUCUUAGUGAUGUUAGGAAAUAACCCAGGUAGGUCGCAGUCUAGUCU”, the “apparent KD of K4 kissing-loop reporter” value is reported as 178 nM.
In the case of “AAAAUAAUCCAGUGAUGUUGGUAACCAGAUACCAGCGACGAAAGUCGCCCUUGGCAGCUGUGGACGUACAAAAUAAGUACGUCCU”, the “apparent KD of K4 kissing-loop reporter” value is reported as 441 nM.
In the case of “AGACUACCACACUGUCAAUAGACAGUGAGCUAGGAUAUGCUGAUAAGCAGAAGGAGUGAUGUUCCUGGGUAGUCAAUAAAAUAAU [FmnAX 13 G29+G67]”, the “apparent KD of K4 kissing-loop reporter” value is reported as 362 nM.
